Positions count from the first letter of the chain named.

Experiment [1] deals with T1, human CLDN6, endogenously expressed on cancer cell lines (human, UniProt P56747 1-220).
T1 construct: also called Endogenous CLDN6+; CLDN6 on ARK2, OVCA429, UMUC4 cells
T1 sequence: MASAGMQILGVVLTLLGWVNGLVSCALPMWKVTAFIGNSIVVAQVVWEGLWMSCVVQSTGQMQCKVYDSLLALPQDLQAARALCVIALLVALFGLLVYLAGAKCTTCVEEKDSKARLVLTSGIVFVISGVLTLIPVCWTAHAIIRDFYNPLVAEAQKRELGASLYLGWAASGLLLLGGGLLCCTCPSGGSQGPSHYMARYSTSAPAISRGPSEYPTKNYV
The experiment in a line: FACS, ARK2 cells, 0.3 ug Ab.

The target of experiment [2] is T1, human CLDN6, endogenously expressed on …. The experiment in a line: FACS, OVCA429 cells, 1.5 ug Ab. In general terms: A flow cytometer gives signals particle by particle.
The target is the same in experiment [3]. Kind of experiment: FACS, ARK2 cells, 1.5 ug Ab.
For experiment [4], the target named is T2, mouse CLDN6 fused to GFP, expressed on engineered HEK293T cells (mouse, UniProt Q9Z262 1-219).
T2 construct: whole, on cells; also called HEK293T-CLDN6-mGFP Artificial CLDN6+ (mouse); murine CLDN6; not shown: GFP tag
T2 sequence (looked up): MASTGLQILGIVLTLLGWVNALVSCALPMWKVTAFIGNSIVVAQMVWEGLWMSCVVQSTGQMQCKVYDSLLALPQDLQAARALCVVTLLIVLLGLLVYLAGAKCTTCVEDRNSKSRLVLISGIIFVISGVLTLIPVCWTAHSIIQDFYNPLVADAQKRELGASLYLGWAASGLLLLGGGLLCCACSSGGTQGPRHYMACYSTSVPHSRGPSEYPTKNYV
The experiment in a line: FACS, 293T clone with mouse CLDN6.

The target of experiment [5] is T1, human CLDN6, endogenously expressed on …. The experiment in a line: flow cytometry on UMUC4 cells (Positive Cell Line), anti-human IgG Fc secondary antibody.

B1: AB3-chim (antibody, V domains shown)
VH: EVKLEESGGGLVQPGGSMKLSCVASGFTFSNYWMNWVRQSPEKGLEWVAQIRLKSDNYATHYAESVKGRFTISRDDSKRSVYLQMNNLRAEDTGTYYCNDGPPSGCWGQGTTLIVSS
VL: DIQMTQSPASLSASVGETVTITCRISENIYSYLAWYQQKQGKSPQLLVYNAKILVEGVPSRFSGSGSGTQFSLKINSLQPEDFGNYYCQHHYTVPWTFGGGTKLEIK
notes: Parental antibody prior to humanization ('chim'); also called pre-humanized form of AB3
For the molecule B1, the FACS signal in experiment [1] came out at 17100; in experiment [2], 138000; in experiment [3], 29100; in experiment [4], 67900.

B2: AB4-4 (antibody, V domains shown)
VH: QVQLVQSGAEVKKPGASVKMSCKASGYTFTSYTMHWIRQAPGQGLEWIGYINPSSTYTHYAQKFQGRATLTADTSTSTAYMELSSLRSEDTAVYYCSRGELGGFAYWGQGTLVTVSS
VL: DVVMTQSPLSLPVTLGQPASISCRSSQSLVHSDGNTYLNWYQQRPGQSPRLLIYKVSNRFSGVPDRFSGSGSGTDFTLKISRVEAEDVGVYYCSQSTHVPYTFGQGTKLEIK
notes: Humanized; also called humanized AB 4-4
Turning to B2, the FACS signal in experiment [1] amounted to 1050; in experiment [2], 1200; in experiment [3], 1400; in experiment [4], 741.

B3: AB4-5 (antibody, V domains shown)
VH: B2 VH with L45Q
VL: B2 VL
notes: Humanized; also called humanized AB 4-5
Take B3: the FACS signal in experiment [1] was found to be 967; in experiment [2], 1350; in experiment [3], 1200; in experiment [4] it was 2000.

B4: AB4-3 (antibody, V domains shown)
VH: B2 VH with M20V, I37V, I48M, A68V, L70M, A79V
VL: B2 VL
notes: Humanized; also called humanized AB 4-3
Turning to B4, the FACS signal in experiment [1] stood at 1190; in experiment [2], 1160; in experiment [3], 1520; in experiment [4], 671.

B5: AB9-4 (antibody, V domains shown)
VH: QVQLVQSGAEVKKPGASVKMSCKASGYRFTDYNMHWVRQAPGQGLEWIGYINPNNGGTNYAQKFQGRATLTVDTSTSTAYMELSSLRSEDTAVYYCARDYLYFFDCWGQGTLLTVSS
VL: DIQMTQSPSSLSASVGDRVTITCRASQTIGTWLAWYQQKPGKAPKLLIYAAASLADGVPSRFSGSGSGTDFTFTISSLQPEDFVTYYCQQLYSIPRTFGQGTKLEIK
notes: Humanized; also called humanized AB 9-4
On to B5, for which the FACS signal in experiment [1] was 1120; in experiment [2], 1110; in experiment [3], 1550; in experiment [4], 1710.

B6: AB11-2 (antibody, V domains shown)
VH: EVQLVESGGGLVQPGGSLRLSCAASGFTFSSFGMHWVRQAPGKGLEWVAYISSDSRTIYYADSVKGRFTISRDNAKNSLYLQMNSLRAEDTAVYYCARDYGRTYEAYWGQGTLVTVSS
VL: DIVMTQSPDSLAVSLGERATINCRASKSVSTSGYSYIHWYQQKPGQPPKLLIYLASNLESGVPDRFSGSGSGTDFTLTISSLQAEDVAVYYCQHSRELPLTFGQGTKLEIK
notes: Humanized; also called humanized AB 11-2
Regarding B6, the FACS signal in experiment [1] stood at 1400; in experiment [2], 2690; in experiment [3] it was 1940; in experiment [4], 7160.

B7: AB11-3 (antibody, V domains shown)
VH: B6 VH
VL: B6 VL with M4L, L82V, I110L
notes: Humanized; also called humanized AB 11-3
With B7, the FACS signal in experiment [1] was found to be 1320; in experiment [2] it was 2200; in experiment [3] it was 1540; in experiment [4], 5520.

B8: AB11-chim (antibody, V domains shown)
VH: DVQLVESGGGLVQPRGSRKLSCAASGFTFSSFGMHWVRQAPEKGLEWVAYISSDSRTIYYADTVKGRFTISRDNPTNTLFLQMTSLRSEDTAMYYCARDYGRTYEAYWGQGTLVTVSA
VL: DIVLTQSPASLAVSLGQRATISCRASKSVSTSGYSYIHWYQQKPGQPPKLLIYLASNLESGVPARFSGSGSGTDFTLNIHPVEEEDAATYYCQHSRELPLTFGAGTKLELK
notes: Parental antibody prior to humanization ('chim'); also called pre-humanized form of AB11
Take B8: the FACS signal in experiment [1] was found to be 1320; in experiment [2], 2440; in experiment [3], 1260; in experiment [4] it was 5490.

B9: AB3-7 conjugated to MC-VC-PAB-MMAE (conventional) (antibody, V domains shown)
VH: EVQLLESGGGLVQPGGSMRLSCAASGFTFSNYWMNWVRQAPGKGLEWVAQIRLKSDNYATHYADSVKGRFTISRDDSKNTVYLQMNSLRAEDTGVYYCNDGPPSGSWGQGTLLTVSS
VL: DIQMTQSPSSLSASVGDRVTITCRISENIYSYLAWYQQKPGKAPKLLVYNAKILVEGVPSRFSGSGSGTDFTLTISSLQPEDFGTYYCQHHYTVPWTFGQGTKLEIK
modifications: MC-VC-PAB-MMAE conjugated to the antibody, heterogeneous (conventional); sites not stated
notes: Antibody-drug conjugate of humanized AB3-7 (WuXi Biologics); also called CLDN6 ADC; ADC-23 (conventional)
As to B9, in experiment [5], the “flow cytometry signal at 0.1µg Ab/Sample” value stood at 8910 and the “flow cytometry signal at 1µg Ab/Sample” value came out at 28800.

B10: AB3-7 conjugated to MC-GGFG-DXD (antibody, V domains shown)
VH: B9 VH
VL: B9 VL
modifications: MC-GGFG-DXD conjugated to the antibody; sites not stated
notes: Antibody-drug conjugate of humanized AB3-7; also called CLDN6 ADC
As to B10, in experiment [5], the “flow cytometry signal at 0.1µg Ab/Sample” value was determined as 10500 and the “flow cytometry signal at 1µg Ab/Sample” value worked out at 32800.

B11: AB3-7 conjugated to MC-VC-PAB-MMAE (D4 technology) (antibody, V domains shown)
VH: B9 VH
VL: B9 VL
modifications: MC-VC-PAB-MMAE conjugated to the antibody, substantially 4 drugs per antibody (D4); sites not stated
notes: Antibody-drug conjugate of humanized AB3-7; also called CLDN6 ADC; ADC-23 (D4 technology)
For the molecule B11, in experiment [5], the “flow cytometry signal at 0.1µg Ab/Sample” value stood at 9450 and the “flow cytometry signal at 1µg Ab/Sample” value is 25900.

B12: AB3-7 conjugated to CL2A-SN38 (conventional) (antibody, V domains shown)
VH: B9 VH
VL: B9 VL
modifications: CL2A-SN38 conjugated to the antibody, heterogeneous (conventional); sites not stated
notes: as for B10
Turning to B12, in experiment [5], the “flow cytometry signal at 0.1µg Ab/Sample” value was determined as 9990 and the “flow cytometry signal at 1µg Ab/Sample” value was 33800.

B13: AB3-7 conjugated to MC-GGFG-MMAE (D4 technology) (antibody, V domains shown)
VH: B9 VH
VL: B9 VL
modifications: MC-GGFG-MMAE conjugated to the antibody (D4); sites not stated
notes: as for B10
For B13, in experiment [5], the “flow cytometry signal at 0.1µg Ab/Sample” value came to 8790 and the “flow cytometry signal at 1µg Ab/Sample” value stood at 31600.

B14: AB3-3 (antibody, V domains shown)
VH: B9 VH with S106C
VL: B9 VL
notes: Humanized; also called humanized AB 3-3
On to B14, for which the FACS signal in experiment [1] is 1160; in experiment [2] it was 88700; in experiment [3], 54900; in experiment [4], 23000.

B15: AB3-7 conjugated to CL2A-SN38 (D4 technology) (antibody, V domains shown)
VH: B9 VH
VL: B9 VL
modifications: CL2A-SN38 conjugated to the antibody (D4); sites not stated
notes: as for B10
Regarding B15, in experiment [5], the “flow cytometry signal at 0.1µg Ab/Sample” value stood at 9140 and the “flow cytometry signal at 1µg Ab/Sample” value amounted to 34600.

B16: AB3-4 (antibody, V domains shown)
VH: B9 VH with S106Y
VL: B9 VL with V48I, G84A
notes: Humanized; full-length IgG; also called humanized AB 3-4
In the case of B16, the FACS signal was 1320 in experiment [1], 2960 in experiment [2], 1460 in experiment [3] and 1520 in experiment [4].

B17: AB1-3 (antibody, V domains shown)
VH: QVQLVQSGAEVKKPGASVKVSCKASGYTFTTYTMHWVRQAPGQGLEWMGFINPSSGYTDYAQKFQGRVTMTADTSTSTVYMELSSLRSEDTAVYYCANGDYYVAYWGQGTLVTVSS
VL: DIQMTQSPSSLSASVGDRVTITCTASSSVSSTYFHWYQQKPGKAPKLLIYSTSNLASGVPSRFSGSGSGTDYTLTISSLQPEDFATYYCHQYHRSPLTFGQGTKLEIK
notes: Humanized; also called humanized AB 1-3
For the molecule B17, the FACS signal in experiment [1] was 2830; in experiment [2], 27500; in experiment [3], 10800; in experiment [4], 89300.

B18: AB1-5 (antibody, V domains shown)
VH: B17 VH
VL: B17 VL with M4L, I21M, L48W, L79M, F84A
notes: Humanized; also called humanized AB 1-5
Take B18: the FACS signal in experiment [1] is 7490; in experiment [2] it was 54300; in experiment [3] it was 22400; in experiment [4] it was 128000.

B19: AB1-6 (antibody, V domains shown)
VH: B17 VH with V20M, M48I, M70L
VL: B17 VL
notes: Humanized; also called humanized AB 1-6
As to B19, the FACS signal in experiment [1] came out at 2820; in experiment [2], 29900; in experiment [3] it was 7740; in experiment [4], 77600.

B20: AB1-8 (antibody, V domains shown)
VH: B17 VH with V20M, M48I, M70L
VL: B17 VL with M4L, I21M, L48W, L79M, F84A
notes: Humanized; also called humanized AB 1-8
B20: the FACS signal in experiment [1] worked out at 5810; in experiment [2] it was 66000; in experiment [3] it was 17600; in experiment [4] it was 122000.

B21: AB1-4 (antibody, V domains shown)
VH: B17 VH
VL: B17 VL with M4L, I21M, L79M, F84A
notes: Humanized; also called humanized AB 1-4
In the case of B21, the FACS signal in experiment [1] was determined as 3640; in experiment [2], 34600; in experiment [3], 10000; in experiment [4], 75900.

The record behind these values is patent US20220177583A1 (University of California, published 2022).
